{
  "source": "patent US10801046B2",
  "about": "“Methods and materials for biosynthesizing multifunctional, multivariate molecules via carbon chain modification” (INVISTA NORTH AMERICA S.A.R.L., priority 2016, dated 2020)",
  "key": {"[1]": {"assay": "In vivo aminotransferase activity screening, 7-aminoheptanoate by LC-MS", "type": "cell-based, Escherichia coli", "details": "in vivo conversion of 7-oxoheptanoate to 7-aminoheptanoate, 120 aminotransferases screened", "method": "A 165-member aminotransferase library from Twist on IPTG-inducible T7- pUC expression vectors was co-transformed into T7 Express lysY/Iq with a constitutive expression pJ23150-derived plasmid bearing the phosphopantetheinyl transferase sfp from Bacillus subtilis, CAR_Srot from Invista and BioC from Serratia marcescens (UniprotKB Accession No. P36571 (SEQ ID NO: 165)). The resulting strains were incubated in 0.5 ml of rich media (terrific broth or LB containing 8% glycerol) supplemented with 0.4 mM IPTG and received 1 g/L monomethyl heptanedioate, 1 g/L heptanedioate, or no organic acid addition, depending on the experiment. Following incubation overnight at 37° C. in a shaking incubator, cells were pelleted and the supernatants were analyzed using LC-MS for 7-aminoheptanoate or monomethyl 7-aminoheptanoate. A Vibrio fluvialis aminotransferase (UniProtKB Accession No. F2XBU9 (SEQ ID NO: 128)) was used as a positive control."}, "[2]": {"tested_on": "heptanedioyl-ACP", "type": "cell-based, Escherichia coli", "details": "top 150 hits screened in vivo"}},
  "data": [
    {"molecule": "SEQ ID NO: 180: Ramlibacter tataouinensis aminotransferase (protein, listed as Ramlibacter tataouinensis, Ramlibacter tataouinensis (strain ATCC BAA-407 / DSM 14655 / LMG 21543 / TTB310), Ramlibacter tataouinensis aminotransferase) MAYNDFDTGNHWLPFTPNRHFKKEPRVFVAADGMHFTTHDGRQVVDGISSLWCVGAGHNRKPINEAIKKQLDTLDYATAFNAANDQAFLAAQKIAAMAPGDLNKVLFCNSGSEAADTSMKVALAYHRARGEGHRNIFIGRERGYHGVGFGGMSVGGIPANRKVYGTALLPRVDHMRFIHDPANAYIHNQEPVSQEDYLLELEQRILPLHSPENVAAIIVEPVAGSAGWYLPPKGYLKRLREICDKHGILLIFDEVITGFGRMGTSFGADFYGVVPDMLNFAKCVTNGVIPLGGVICRDKLYDTMMKTDAPEHVIEFFHGYTYSGHPVSCAAAIATLDLYQKEGLFPRAGEMGKVLGDAFHSTFKGLPNVVGIRSLGLAAAVELAPIAGLPGKRAYDIYLDCFRKGALVRPAGDVVVIAPPYVVEKSHIDQLVNTLADSIRQHA", "values": [
      {"measurement": "7-aminoheptanoate yield compared to the positive control (F2XBU9)", "setting": "[1]", "result": "higher 7-aminoheptanoate yields"}
    ]},
    {"molecule": "SEQ ID NO: 117: Thermomicrobium roseum aminotransferase (protein, Thermomicrobium roseum (strain ATCC 27502 / DSM 5159 / P-2), Thermomicrobium roseum aminotransferase) MTEVAAVHPEPRTAPDFEQEALKHVWIHSAEWIRLAEERGFRVFERAYGSTLVDVYGREFIDGLSGLWVVNAGHGRKEIAEAMAEQASKLAYVSSANHTTVPTVRLAHELALRLPGDLNRVFFCSGGSEAVESAIKIAKQVQAMRGFPKRYKIIARRGSYHGMTYGAMSLTQSRNEKFFGPFMYGVYYVPSPNRYRNDFGLEGEEGDLMCANYVEQEILYQDPETVAAVIGEPISTSNGVHVPSPKYWQRLREICDKYGVLLIMDEVINGFGRTGKLFAAEHFGVVPDLMTMAKGITSGYAPMGAVAVRDSVFQIFQEQKEVPLGHLLTFGGHAVAAAAALKNLEIFEREGLVQQSAEKGAYLLERLKELLRHPTVGDVRGLGLMCGIELVKSKATKEKWPRNSAFIKALERRMNEKGLLTRVWEIVHVAPPLVVTYEELDRIVTIIDEALTETENEFASEIAE", "values": [
      {"measurement": "7-aminoheptanoate yield compared to the positive control (F2XBU9)", "setting": "[1]", "result": "higher 7-aminoheptanoate yields"}
    ]},
    {"molecule": "SEQ ID NO: 178: Defluviimonas sp. 20V17 aminotransferase (protein, Defluviimonas sp. 20V17, Defluviimonas sp; 20V17 aminotransferase) MNELSNSVAHADITTILHPYTDARMHEQKGPLVIEKGDGVHVIDQSGKRYIEAMSGLWSVAVGFSQTRLRDAAAAQMEKLPYYHTFASKSHEPSVRLAEKLVEMTPENLTRVFYTSSGSEANDTVIKLVWYMNNALGRPQKKKFLARNKAYHGITIASGSLTGLPGNHRDFDLPAIPVVHLTCPHLYRFGQEGETEAQFCARLLKEAEDTILAEGPETIAAFIGEPVMGAGGVMVPPEGYWQGIEALCRKYDILLVSDEVINGFGRTGARWGCEKMGFTPDILVTSKQLTSSYMPLAAIVFSEDIYNVIADNTHKLGGFGHGFTASGHPVACAVGLENLAIIEEQGLMENAAKMGERLQAGLAKLADHPLVGEVRGTGLIAAVELVADKATKRPFDPVGKVGGKVFEYGHEEGVIFRNLGDSIAVCPPLIVTEHDVDEIVRLMGIAIDRAADWARAEGLVA", "values": [
      {"measurement": "7-aminoheptanoate yield compared to the positive control (F2XBU9)", "setting": "[1]", "result": "higher 7-aminoheptanoate yields"}
    ]},
    {"molecule": "SEQ ID NO: 181: Bradyrhizobium sp. DOA9 aminotransferase (protein, Bradyrhizobium sp. DOA9, Bradyrhizobium sp; DOA9 aminotransferase) MVAKQLSNSLAHADISATLHPYTNARAHERQGPVIIDRGEGIYVYDDAGKEYIEGLAGLWSVAIGFDEPRIVEVAAAQMAKLPYYHTFSHKSHEPSIRLAEKLVGMTPEPLSRVFFTSSGSEANDTMIKMVWYMNNALGRPKKKKFLARHRAYHGVTVASGSLTGLPNNHKDFDLPVIPVRHLTCPHFYRFAQTEETEAEFSARLVSEAEATILEEGPDTIAAFVGEPLMAAGGVMPPPKGYWQGIEALCRKYDILLVADEVICGLGRLGTRFGCEHYHFTPDIMIVSKQLTSSYMPLAAVIFSETIYNAIADNTAKIGTFGHGFTASGHPVATAVALENLKIIEERDLVGNAARMGRILQARLGELAAHPLVGEVRGVGLIAGIELVSEKHTRRPFASAGEVGAAAFAAAQRHGLIVRAIGDTIALCPPLIINEDQVHELVARLGDALDDTAQWRSAENLN", "values": [
      {"measurement": "7-aminoheptanoate yield compared to the positive control (F2XBU9)", "setting": "[1]", "result": "higher 7-aminoheptanoate yields"}
    ]},
    {"molecule": "SEQ ID NO: 188: Vibrio mimicus thioesterase (protein, listed as Vibrio mimicus) MIRLLSLVLFFCLSAASQASEKLLVLGDSLSAGYQMPIEKSWPSLLPDALLEHGQDVTVINGSISGDTTGNGLARLPQLLDQHTPDLVLIELGANDGLRGFPPKVITSNLSKMISLIKDSGANVVMMQIRVPPNYGKRYSDMFYDIYPKLAEHQQVQLMPFFLEHVITKPEWMMDDGLHPKPEAQPWIAEFVAQELVKHL", "values": [
      {"measurement": "activity toward heptanedioyl-ACP in vivo", "setting": "[2]", "result": "displayed considerable activity toward heptanedioyl-ACP"}
    ]},
    {"molecule": "SEQ ID NO: 176: Firmicutes bacterium CAG:24 aminotransferase (protein, Firmicutes bacterium CAG:24, Firmicutes bacterium CAG:24 aminotransferase) MGELMQQYIDEAEQDLLHTYNRYQVVLDRGDGVSLYDIEGKRYLDFVAGIAVFALGYHNAEYNDALKAQIDKVIHTSNYYYNVPAVEAARHLKKVSRMDRVFFTNSGAEAIEGAIKAARKYAYLKDGTTDHEIIAMNHSFHGRTMGALSVTGNPHYREAFEPGIGNIRFADLNDFDSVLACVNDKTCAILLETVQGEGGIYPVQEDFLKKVRALCDEKDILLILDEIQCGMGRTGYWYAWQKYGVKPDIMTTAKALGCGVPVGAFLMTEKVGQHSLTAGDHGTTYGGNPLACAAVAKVLDLFEENNILEHVREVSAYLEEKLDSLAAKYDFITDRRGMGLMQGLVFDRPVAPVINAALENGLILINAGTNIIRFVPPLVITDADVDEMIEILDSCLKTFQEQNA", "values": [
      {"measurement": "7-aminoheptanoate yield compared to the positive control (F2XBU9)", "setting": "[1]", "result": "higher 7-aminoheptanoate yields"}
    ]},
    {"molecule": "SEQ ID NO: 179: Sphingobacterium spiritivorum ATCC 33861 aminotransferase (protein, Sphingobacterium spiritivorum ATCC 33861, Sphingobacterium spiritivorum ATCC 33861 aminotransferase) MIKEATVHERLAKHILADGLPLVIDLEKSHDSYIVDIEGNEYLDMFSMFASSPIGYNHPHIVKNSDLLKKVAINKLALSDIYPREFADFVDTFERVAIPAELSYCFFIDGGALAVENALKAAFDWKTRLNISRGIQQEASEVIHFKQAFHGRTGYTLSLTNTKDPRKYMYFPKFDWPRITNPKLHFPLTEESVTETIKAEQQAIQEIEAAIAKNPDAIACLILEPIQAEGGDNHFRTEFFQELRRICDDHDILLILDEVQTGLALTGKMWAYEHYGIIPDLISFGKKSQVCGVLAHREKFDRVEKHVFKESSRINSTFGGNLVDMMRFKLILEVIEQENLVQQAESLGEYLLEKLEQLAKRHSQLSNVRGKGLLASFDFQTEQQRDEFVKRAMNNKLLILGCGDKSIRFRPHLTVTVEQLDKALALVEKSL", "values": [
      {"measurement": "7-aminoheptanoate yield compared to the positive control (F2XBU9)", "setting": "[1]", "result": "higher 7-aminoheptanoate yields"}
    ]},
    {"molecule": "SEQ ID NO: 177: Pseudooceanicola batsensis aminotransferase (protein, listed as Pseudooceanicola batsensis, Pseudooceanicola batsensis (strain ATCC BAA-863 / DSM 15984 / KCTC 12145 / HTCC2597), Pseudooceanicola batsensis aminotransferase) MKDDNFLKEHNARALWHPMGAPGDSMANPPVIISSASGSRIRDIDGHETVDGVGGLWCANLGYSNDAVKEAIAKQLHELPYYSAFAGCTNPSAIEASVAVQEFFAEDGIGRVFFTSGGSDSVDTCLRLARQYHQVKGAPTRTKFLSLKKGYHGTHFGGASVNGNNRFRIGYEPLLPGCFHLTAPHAYRNPYDEADPAALARKIAAEMVDEIEFQGPETIAAFIMEPILGAGGVIVPDPTFMGLMREICTRYGILMIADEVICGFGRTGDWTGSRHWGVRPDMMSVAKGITSAYFPVGAALISEEVAEVFEKDTSGAAAIWHGYTYSAHPVGAAAVTACLSETLRLDTRTNAAARGTQLYQGLLGLKEKYDIIGDVRGGHGLMTAIEFVTDRAKKTPMDAATVKTIHSRVYEAGAMVRPAPPNLLMSPPLIITEAEVRTIIEALDTAIGSV", "values": [
      {"measurement": "7-aminoheptanoate yield compared to the positive control (F2XBU9)", "setting": "[1]", "result": "higher 7-aminoheptanoate yields"}
    ]},
    {"molecule": "SEQ ID NO: 123: Pseudomonas sp. 10-1B aminotransferase (protein, Pseudomonas sp. 10-1B, Pseudomonas sp; 10-1B aminotransferase) MENSMSLNDLQQRDIDNLLHPYTNHHLHQSQGPHVITGGDGIYVTDDQGNRYIEGLAGLFCASLGFSEPRLAQAAFEQLQRMPFYHAFAHKSTQPGIELAERLLAMAPPSMSKVFFANSGSEANDTAVKLIWYYHNAIGQPQKKKIIARQRGYHGVTVASASLTGLPNNHRDFDLPIANILHTDCPHYYRYGLPGESEAAFVDRCVANLEALILHEGADTIAAFFAEPVMVSGGVILPPQGYFAKVQALLRKYDILFVVDEVICGFARTGNMFGWQTYDLQPDMISLAKQLSAAYMPISALLVNDKIDQALKAQSEKIGSFSHGFTYGGHPVAAAVALEAQKIYQERDIVGHVRRVAPRFQAGIRRLGEHPLIGEARGVGLVAGLEFVRNKQTRETFAPEQSAAAYAGRRAQAHGVITRGLGDTLSLCPALIIDEEQIDDLIVRIERALDDTLAWAREQGLVDA", "values": [
      {"measurement": "7-aminoheptanoate yield compared to the positive control (F2XBU9)", "setting": "[1]", "result": "higher 7-aminoheptanoate yields"}
    ]},
    {"molecule": "SEQ ID NO: 175: Tepidicaulis marinus aminotransferase (protein, listed as Tepidicaulis marinus) MSQTAQISNQTRRWQEMDARHHVHPFSDQAALAKKGARVITHAEGVYLYDSEGHKIIDGMAGLWCVNVGYGRSELAEAGYKALKELPYYNTFFQTTNPYTAELGERLAEVTPDGLDRFFFANSGSEANDSMVKIIRYYWSLQGKPEKKVFISRKQAYHGVTMTAASLSGISAMHPQAGLPLPNHAHIDFPYWYGMGGDMDPNEFGVHIAMKLEEKILEIGAENVAAFVAEPVQGAGGLIIPPDSYWPVIQEICHKYDILLHADEVICGFGRTGNWFGSHTYGIVPDTMAMAKGMTSGYQPLSAVALGPRVGDALHNSGEEWSHGFTYSGHPVASAVALANLDVLQKDKLVEKAGGETGEHFLKHLHALADHPIVGETRGVGLLGAIELVKDKKTRERFEGDTGGLCRDHCFENDLIMRAIGNTMVLSPPLSITKAELDELFTLARKALDATAKDLGAM", "values": [
      {"measurement": "7-aminoheptanoate yield compared to the positive control (F2XBU9)", "setting": "[1]", "result": "higher 7-aminoheptanoate yields"}
    ]}
  ]
}
